Experimental data from patent US20070054328A1 (published 2007).

B1: endogenous TAPP1 of 293 cells (other, human, UniProt Q9HB21 1-404, looked up)
chain: MPYVDRQNRICGFLDIEENENSGKFLRRYFILDTREDSFVWYMDNPQNLPSGSSRVGAIKLTYISKVSDATKLRPKAEFCFVMNAGMRKYFLQANDQQDLVEWVNVLNKAIKITVPKQSDSQPNSDNLSRHGECGKKQVSYRTDIVGGVPIITPTQKEEVNECGESIDRNNLKRSQSHLPYFTPKPPQDSAVIKAGYCVKQGAVMKNWKRRYFQLDENTIGYFKSELEKEPLRVIPLKEVHKVQECKQSDIMMRDNLFEIVTTSRTFYVQADSPEEMHSWIKAVSGAIVAQRGPGRSASSEHPPGPSESKHAFRPTNAATATSHSTASRSNSLVSTFTMEKRGFYESLAKVKPGNFKVQTVSPREPASKVTEQALLRPQSKNGPQEKDCDLVDLDDASLPVSDV
B2: GST-DAPP1 (other, UniProt Q9UN19 1-280, looked up)
chain: MGRAELLEGKMSTQDPSDLWSRSDGEAELLQDLGWYHGNLTRHAAEALLLSNGCDGSYLLRDSNETTGLYSLSVRAKDSVKHFHVEYTGYSFKFGFNEFSSLKDFVKHFANQPLIGSETGTLMVLKHPYPRKVEEPSIYESVRVHTAMQTGRTEDDLVPTAPSLGTKEGYLTKQGGLVKTWKTRWFTLHRNELKYFKDQMSPEPIRILDLTECSAVQFDYSQERVNCFCLVFPFRTFYLCAKTGVEADEWIKILRWKLSQIRKQLNQGEGTIRSRSFIFK
notes: Control GST fusion expressed in 293 cells; also called dual adaptor for phosphotyrosine and 3-phosphoinositides; not shown: N-terminal glutathione S-transferase (GST) tag
B3: GST-FAPP1 (other, UniProt Q9HB20 1-300, looked up)
chain: MEGVLYKWTNYLTGWQPRWFVLDNGILSYYDSQDDVCKGSKGSIKMAVCEIKVHSADNTRMELIIPGEQHFYMKAVNAAERQRWLVALGSSKACLTDTRTKKEKEISETSESLKTKMSELRLYCDLLMQQVHTIQEFVHHDENHSSPSAENMNEASSLLSATCNTFITTLEECVKIANAKFKPEMFQLHHPDPLVSPVSPSPVQMMKRSVSHPGSCSSERSSHSIKEPVSTLHRLSQRRRRTYSDTDSCSDIPLEDPDRPVHCSKNTLNGDLASATIPEESRLMAKKQSESEDTLPSFSS
notes: Control GST fusion expressed in 293 cells; not shown: N-terminal glutathione S-transferase (GST) tag

What was measured:
[1] = target: T1, endogenous PTPL1 (Protein Tyrosine Phosphatase Like-Protein-1) of 293 cells (human, UniProt Q12923 1-2485, limits assumed); test: cell-based or functional assay
T1 sequence (Q12923 whole entry): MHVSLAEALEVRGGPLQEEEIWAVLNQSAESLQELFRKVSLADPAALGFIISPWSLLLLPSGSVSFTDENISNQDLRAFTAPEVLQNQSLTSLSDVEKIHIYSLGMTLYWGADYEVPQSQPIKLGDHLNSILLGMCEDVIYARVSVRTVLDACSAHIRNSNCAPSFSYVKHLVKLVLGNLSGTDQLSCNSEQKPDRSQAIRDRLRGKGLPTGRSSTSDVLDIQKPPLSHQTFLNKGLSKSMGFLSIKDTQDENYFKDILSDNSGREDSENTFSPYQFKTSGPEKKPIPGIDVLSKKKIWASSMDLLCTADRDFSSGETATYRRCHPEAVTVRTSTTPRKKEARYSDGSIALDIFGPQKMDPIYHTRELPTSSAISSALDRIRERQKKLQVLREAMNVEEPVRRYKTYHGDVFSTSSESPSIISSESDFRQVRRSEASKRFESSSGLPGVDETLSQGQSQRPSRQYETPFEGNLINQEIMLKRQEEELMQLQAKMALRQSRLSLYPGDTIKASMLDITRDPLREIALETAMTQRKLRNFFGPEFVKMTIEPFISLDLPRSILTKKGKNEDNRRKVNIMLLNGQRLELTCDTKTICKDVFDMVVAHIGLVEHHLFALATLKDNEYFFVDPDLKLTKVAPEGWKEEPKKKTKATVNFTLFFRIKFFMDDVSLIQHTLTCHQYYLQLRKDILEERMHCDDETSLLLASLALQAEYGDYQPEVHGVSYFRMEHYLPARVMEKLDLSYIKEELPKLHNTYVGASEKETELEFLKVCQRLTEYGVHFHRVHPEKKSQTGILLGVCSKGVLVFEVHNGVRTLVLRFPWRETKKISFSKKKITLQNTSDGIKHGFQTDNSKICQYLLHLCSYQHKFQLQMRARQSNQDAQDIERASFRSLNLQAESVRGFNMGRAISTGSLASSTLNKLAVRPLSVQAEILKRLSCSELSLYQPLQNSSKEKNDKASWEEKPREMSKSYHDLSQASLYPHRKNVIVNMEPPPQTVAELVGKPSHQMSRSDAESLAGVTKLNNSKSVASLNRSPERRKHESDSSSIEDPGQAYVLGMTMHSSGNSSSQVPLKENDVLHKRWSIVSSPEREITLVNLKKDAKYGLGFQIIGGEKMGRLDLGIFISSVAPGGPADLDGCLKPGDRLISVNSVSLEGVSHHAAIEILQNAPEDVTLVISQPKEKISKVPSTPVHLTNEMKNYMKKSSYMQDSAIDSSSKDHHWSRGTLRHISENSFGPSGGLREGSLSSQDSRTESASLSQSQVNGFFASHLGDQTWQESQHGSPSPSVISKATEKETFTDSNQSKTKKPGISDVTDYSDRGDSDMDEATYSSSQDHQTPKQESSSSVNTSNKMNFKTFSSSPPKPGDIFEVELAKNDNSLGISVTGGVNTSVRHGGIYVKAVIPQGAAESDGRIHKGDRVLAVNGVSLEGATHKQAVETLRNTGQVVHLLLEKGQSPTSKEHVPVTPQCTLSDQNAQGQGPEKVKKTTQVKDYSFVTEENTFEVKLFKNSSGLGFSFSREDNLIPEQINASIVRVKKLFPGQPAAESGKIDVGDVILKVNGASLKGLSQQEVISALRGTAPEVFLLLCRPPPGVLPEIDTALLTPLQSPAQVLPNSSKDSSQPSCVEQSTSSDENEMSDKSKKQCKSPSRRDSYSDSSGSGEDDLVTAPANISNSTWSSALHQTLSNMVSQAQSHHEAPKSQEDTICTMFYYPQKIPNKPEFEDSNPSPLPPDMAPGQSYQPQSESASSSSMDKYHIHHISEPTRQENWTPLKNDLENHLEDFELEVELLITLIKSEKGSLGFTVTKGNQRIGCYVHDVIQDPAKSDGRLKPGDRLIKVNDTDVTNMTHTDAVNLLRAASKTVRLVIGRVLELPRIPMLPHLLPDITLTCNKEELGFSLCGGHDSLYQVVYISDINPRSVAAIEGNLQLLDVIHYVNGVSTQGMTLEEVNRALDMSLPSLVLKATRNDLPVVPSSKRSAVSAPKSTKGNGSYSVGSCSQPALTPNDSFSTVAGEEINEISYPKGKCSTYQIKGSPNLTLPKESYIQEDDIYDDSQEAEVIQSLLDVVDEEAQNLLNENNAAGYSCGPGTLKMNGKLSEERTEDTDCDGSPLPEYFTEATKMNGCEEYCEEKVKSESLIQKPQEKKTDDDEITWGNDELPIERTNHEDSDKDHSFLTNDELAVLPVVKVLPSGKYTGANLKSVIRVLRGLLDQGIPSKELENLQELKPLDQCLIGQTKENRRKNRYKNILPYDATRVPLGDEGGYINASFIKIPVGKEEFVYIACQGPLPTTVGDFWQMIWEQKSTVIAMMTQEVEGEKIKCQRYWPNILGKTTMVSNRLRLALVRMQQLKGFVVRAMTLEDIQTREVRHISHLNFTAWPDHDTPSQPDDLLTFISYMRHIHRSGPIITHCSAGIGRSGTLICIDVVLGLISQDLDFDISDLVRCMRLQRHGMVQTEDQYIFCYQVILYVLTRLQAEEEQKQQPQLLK

[2] = target: T1, endogenous PTPL1 (Protein Tyrosine …); test: GST pull-down from 293 cells; pNPP phosphatase assay and anti-PTPL1 immunoblot
Method: Rates or amounts of para-nitrophenol production were calculated using a standard curve generated from known amounts of para-nitrophenol. For the insulin receptor peptide assay a 50 μl reaction was set up containing 20 mM Tris pH7.4, 150 mM NaCl, 1 mM DTT, 20 μM of the tyrosine-phosphorylated peptide and 100 ng of GST-PTPL1. After 10 min at room temperature, the reactions were terminated by the addition of 0.1 ml of BIOMOL green reagent and after an additional 20 min the amount of phosphate liberated was quantitated by absorbance at 620 nm and measured against inorganic phosphate standards. In all assays we ensured that the rate of para-nitrophenol formation or the dephosphorylation of the insulin receptor peptide, was linear with time.
Immunoblotting. For blots of total cell lysates or tissues 20 μg of protein was used. For the purified GST fusion proteins to detect association of endogenous PTPL1, 10 μg of fusion protein was employed for the PTPL1 blots and 0.1 μg for the GST blots. Samples were subjected to SDS/PAGE and transferred to nitrocellulose. […]

Row | Binder | pNPP phosphatase activity immunoprecipitated with the anti-PTPL1 antibody compared with the TAPP1 antibody [1] [fold] | binding result [2]
1 | B1 | ~6 | 
2 | B2 |  | no binding
3 | B3 |  | no binding
